Here are results for one substance from patent EP2138508A1.

The target in this experiment is Met receptor on MK keratinocytes (mouse) (UniProt P16056). In words: cell-based or functional assay.

The substance “InIB full length (from UniProt P0DQD2 31-630) (ligand)” registered a stimulation of DNA synthesis in MK keratinocytes, lowest active concentration of 100 pM.
